Test results taken from the DeepSol protein solubility set.

Assay: soluble on expression in E. coli; label from the status in PepcDB or PDB records
With “MNDFRPNPSLLLETSWEVCNKQGGIYTVLTSRAHEMMKRHDGRIIFIGPLLTEQEDLPTDFENTVPAILEDWHRDAAPSLDLRYVCGSWRTPGSPPVVLVDFEPLHAQKATLYYEMWEHFGIQSDKGYGDYDEASLFGIAAAQTMHSLCEYLCPEDQPAIGIFNEWMLGMGLLYSKRKTPRLKTLFLTHATTTGRSIAGNNKALYAYMPGYNGDQMAAELGVEAKHGIEKAAAHQSDTFATVSELTAKECRQLLERDPMVLPNGFEPNFVPQGEEYERRRAEARKRLLHVAEHLTGKQLPADTLLIATSGRYEYRNKGIDLFIDAASEAGRSGK” the “soluble on expression in E. coli” value was “not soluble”. For “MNDFTTEIVQTLVTKGDLNELFRSHLEKAINTLLRTELTAFLDYEKYDRTGFNSGNSRNGSYFRSIKTEYGELTLEIPRDRNGEFKQQTLPAYKRTNDTLETTIIHLFEKGVTMSEIADLIEKMYGHHYTPQTMSNMTKVLTEEVNAFKSRALNDKYVAIFMDATYIPLKRQTVSKEAIYIAIGIREDGTKEVLSYAIAPTESTYVWNELLQDINSRGVQEVLLFITDGLKGMKDTIHQIYPKAKYQHCCIHVSRNIAHKVRVKDRKEICDDFKAVYQANSKEEANTFLSGMIEKWKKNYPKVTQSLIENQDLLTFYDFPPSIRRTIYSTNLIESFNKQIKRYSRRKEQFQNEESLERFLVSIFDTYNQKFLNRSHKGFQQVTDTLVSMFTE”, the “soluble on expression in E. coli” value was “not soluble”. In the case of “MNDHSQLFRLLALLLDYPRAELREESLGLHALIRTCELPEALRDGLAALLNELCQGDLLDVQARYDGLFERGRSVSLLLFEHVHGESRDRGQAMVDLLDRYTGAGLQIDVPELPDYLPLYLEYLSLLPFAAASEGLAEVAHILGLLALRLEERGSAYAAIFEALLELGGERPDLGALRRDQAQEQRDDSLEAIDRAWEETPVSFTDPAGGCPSSSGRRPTASTEQPLQWVAQPVPQM”, the “soluble on expression in E. coli” value is reported as “not soluble”. With “MNDITQLRQNVLEKAHQEGQQCLKIATDSLDTDFKERQQQGLHDLKAKRQKELKALEQQFQVAQQQLKNQERQALLALKQDSIKELFEASLEKMTNFSKEEELAFLKQVLSKYPEQPLQVTFGEKTGQKFSSYDCAELRLAFPQLSYNQELIPQEAGFLVSLDQVDDNYLYRYLLESVLKEESSRIIDMLFSEI” the “soluble on expression in E. coli” value was “not soluble”. For “MNDKQYQEIASLLERLSRNNAMSIYGDWIKNSFSKELIASISVLTHNDLKILDSLFKQDLSISDVVSRTGLSQGGVSRRVNMMSEKGIIHKYQNDKNKKTVFLKLNPIGQELFDFHRKLHDHIKEIFFQKTQRFNEEQIRVVISFLEAILT”, the “soluble on expression in E. coli” value was “soluble”. In the case of “MNDMSDWKPKRFWKQAAVAETAEGYAVELDGRPVRTPAKAPLLLPTRALAEAIAAEWDAQESEVDPINMPFTRTANAAIDKVRIQQAEVADMLAAYGDSDLLCYRADSPAELVELQAQTWDPALDWAAETLGVRLRPVQGVMHQPQPASAIETLTRKVHALNPFQLAAFHDLVSLSGSLVLGFAAALNWRKADEIWQISRLDETWQEEQWGPDDEARALAAVKRAAFLHAKAAYDISTLEHHHHHH”, the “soluble on expression in E. coli” value is reported as “not soluble”. In the case of “MNDNEKQLDLRIRRTHKLLWDSLFELMTQSKQKYSTITINQICDRAMVHRTTFYKHFEDKDALLTFGFKRYGKMIAEIPVSDRLSKPFQVMEQFLHHEEIGKILETQMSDEQFINRTQYLSHETRKQEIEALNQLHKNHTMPNDLIIEFYSGAITSLSAWWFKSERKVSAAEMDRYLHQLINRDIFQFEKE”, the “soluble on expression in E. coli” value is reported as “not soluble”. For “MNDPMGETGFSRESAPEIVFSETDMAAAEQLMHLSEEETVSCSSSTGGDCGGGGGDKIKHEYVSSRIGNELNDGVRGNSILGVEKKRKRTVMKEKKFRSLESIYKGTKEIRD”, the “soluble on expression in E. coli” value was “not soluble”. For “MNDQYHRAARDGYLELLKEATRKELNAPDEDGMTPTLWAAYHGNLESLRLIVSRGGDPDKCDIWGNTPLHLAASNGHLHCLSFLVSFGANIWCLDNDYHTPLDMAAMKGHMECVRYLDSIAAKQSSLNPKLVGKLKDKAFREAERRIRECAKLQRRHHERMERRYRRELAERSDTLSFSSLTSSTLSRRLQHLALGSHLPYSQATLHGTARGKTKMQKKLERRKQGGEGTFKVSEDGRKSARSLSGLQLGSDVMFVRQGTYANPKEWGRAPLRDMFLSDEDSVSRATLAAEPAHSEVSTDSGHDSLFTRPGLGTMVFRRNYLSSGLHGLGREDGGLDGVGAPRGRLQSSPSLDDDSLGSANSLQDRSCGEELPWDELDLGLDEDLEPETSPLETFLASLHMEDFAALLRQEKIDLEALMLCSDLDLRSISVPLGPRKKILGAVRRRRQAMERPPALEDTEL”, the “soluble on expression in E. coli” value was “soluble”. With “MNEETHNKKWQITHRKIQEIVFHLLKEHPIKEISVSQVCKKANINRSTFYDHFEDIYELFDVTQLNKRKELFESFIKQSNPRDKFNFYDLQSLTQFLTFIKENGWIYSIVLKSRQDFPITEGFEELYKVLINPLKKKRPELTDNELAYYFIAFQSSFTFILKRWSDNDYQEKEKEIAAILINSMPLILKNK” the “soluble on expression in E. coli” value was “soluble”. In the case of “MNEIMLETKNLCKTFRQQSVVQNISLSVPKYAIYGLLGPNGAGKSTTLKMITGMLIPTSGEIYFDGHKWTRHDLHSIGALIDSPPLYENLTARENLQVRTTVLGLPKSRIDEVLHVVELENTEKKKAKDFSMGMKQRLGIAIALLNHPKFLILDEPMNGLDPFGIQELRKLILSFPGKGITVILSSHILSEVSQIADHVGIISGGVLGYQGKLNKNDDLEDLFVQVAGKYRREA”, the “soluble on expression in E. coli” value is reported as “not soluble”. In the case of “MNEKELADSVFGGLMAKAMGKMVHESEICPLVDQIEGKGQTNEELQGLRLSLSDLLLRHPDKFINCGNRNWRLNQNNHAFQQLAESISDKKSGKGGKRSARGGSNLPSFNRARSGGIPRNHNQTHGFRQSAPAHRGHHRPPAGNHGSSFRPNLNISQPNPSNDYSKMTGLHYPVSRNVLASNNGSNSRFSNQPPRREDHHEKMIMRTPYRDPSPRRGNNYGDIRGRPDSRDGYNGDRDSTRYSSPRRNEQPGRPSSRGSNISDYSQFSSDTNAESNTERRSRPDASSPDLADLARRFNSSSINVQPQPLESVASSDVLSKKIAKAVRKIMKKLNEGEKLSLENLFDEIERKNKILIPGKNGKEKEDFLKDLKKIMPKLLSALTIDTETGDLTWNEAAVTTDSPIHEYMEDDLHYYVVDYVKMLDKARFRVTDEAERLSNATGVRMERTCEKLTYVLFITFEGEYRYASGSKTEVLKISKITTVGDAPEFYQTSFEHKIFENVPANALVKCGIVRYQNVQKFAVRPEEYIKPYEKMNQEIQDFMSQIRNEKSVPFEMWRPNHACLVQLNDSTTILKWSRAMIIKIETQLIFLFILDSGFRKVVPSSDLRLMPQKFAKLPPFAIPCTLDESEDDKDNIEFGGKEYLSNGPGNLSVTCSGAATASDGILTYPIKLFSTCHGGPLTNIKDVFI”, the “soluble on expression in E. coli” value is reported as “not soluble”. For “MNEKVFRDPVHNYIHIDNPLIYDLINTKEFQRLRRIKQVPTTAFTFHGAEHSRFSHCLGVYEIARRVTAIFEEKYADIWNKDESLVTMTAALLHDIGHGAYSHTFEVLFHTDHEAFTQEIITNPETEINAILVRHAPDFPDKVASVINHTYPNKQVVQLISSQIDCDRMDYLLRDSYFSAANYGQFDLMRILRVIRPVEDGIVFEHSGMHAVEDYIVSRFQMYMQVYFHPASRAVELILQNLLKRAQHLYPEQQAYFQKTAPGLIPFFEKKANLADYIALDDGVMNTYFQVWMASEDHILSDLASRFINRKILKSVTFDQDSQGELERLRQLVESVGFDPDYYTGIHINFDLPYDIYRPELENPRTQIEMMQKDGSLAELSQLSPIVKALTGTTYGDRRFYFPKEMLELDDLFAPSKETFMSYISNGHFHFSQ”, the “soluble on expression in E. coli” value was “not soluble”. For “MNELREKDESYRSFLLLSAISSEEPLSQREIARQVGIALGLVNSYLKHLVDKGFVRIKSFPRNRYAYLLTPRGLAEKSRLAYEHLSSFTTLFRVARQDYLALFRALKTQGVGRVAFCGVDEVAEIAYLSLREVGLELALVMDQATDGREFFGKPVVSIPHGLLAGNHHIVITTFKRREALREELLQRGVASELLHQAGEPAGETQSIREEHP”, the “soluble on expression in E. coli” value was “not soluble”. For “MNENDGKNSAEKHNNSQDEGSIQPDKTQLDDVADDAEKKSEKSSNCMIWSQNVLKKAKISNMTREFRNNKEYKPNVTTSISEKMMDKNRYRHIFCGDDNRVVLKERDPSNDYIHASWMVMPDGFQFISTQGPIKNTIADFWHMVYTEKCHVIVMLCQYIEEDQEKCQRYFSDTSEKEYGDYRVKVVEKTVELWNPVKVTGIQVQKKNCPTKHMVYHYFYYDWHDQVAPLDPAPMIKMYKAVLNKSSSKPIVVHCSAGVGRTSTFVGIYLSQIMIRENSSVDMVEILKRLRTMRLGAVQSQLQYVYLVVLMIELFIDDKIIKRNANYESLLKKYADVTRKVTAAIMEEEEKRRQRKKREEEKEKEQEKESPATKEEKKKENGLKTNRQRDNREAPSKPPRKNPEELARSKLQGPRKLTLKNRDGNAEEPTAKDNEERSTAEDKSKNRQKSVYVKMPLSSKEKGSKHERAKQGARKNAARKAKKKPSVTGNY”, the “soluble on expression in E. coli” value was “not soluble”. In the case of “MNEQIRTILAEDGTKTSKIRKLLLLGLTHREIADLVTRGNRGFVWNVYKRMRDEGLIVSAGTPTATTTPELDYSFRRKFGVEIEAYNCTCQRLVRELTEAGIEVASERYNHDLRPHWKLVTDSSLNGNDTFELVSPILEGEDGLEKLERVCWVLDSCNVKINGSCGLHVHMNAEDFNITTWRNLLLSYKHAEAEIDKFMPASRRGGSNTYCGSLIQFPDERIRSARNIRELQGLFPSRYMKVNLQAYSRHRTVEFRQHSGTISFTKIENWVCFLDRMITFASVGSLPAGIRLEDFPFLGEKQKLYYKLRTKKLAV”, the “soluble on expression in E. coli” value is reported as “not soluble”. With “MNERLKEKLAVLPEQPGCYLMKDKHGTVIYVGKAKSLKERVRSYFTGTHDGKTQRLVEEIADFEYIVTSSNAEALILEMNLIKKHDPKYNVMLKDDKSY” the “soluble on expression in E. coli” value was “soluble”. With “MNETKVLIEKITEGIQEKKGKNIVIADLTNIDDTICKYFVICQGNSPSQVIAIVDSIKEFTRKGAGTKPSAIDGQRNAEWVAMDFSDVLVHVFLPEARNFYNLEHLWADAKLTTIPDID” the “soluble on expression in E. coli” value was “soluble”. For “MNETPTRVYAEIDLDAVRANVRALRARAPRSALMAVVKSNAYGHGAVPCARAAQEAGAAWLGTATPEEALELRAAGIQGRIMCWLWTPGGPWREAIETDIDVSVSGMWALDEVRAAARAAGRTARIQLKADTGLGRNGCQPADWAELVGAAVAAQAEGTVQVTGVWSHFACADEPGHPSIRLQLDAFRDMLAYAEKEGVDPEVRHIANSPATLTLPETHFDLVRTGLAVYGVSPSPELGTPAQLGLRPAMTLRASLALVKTVPAGHGVSYGHHYVTESETHLALVPAGYADGIPRNASGRGPVLVAGKIRRAAGRIAMDQFVVDLGEDLAEAGDEAVILGDAERGEPTAEDWAQAAHTIAYEIVTRIGGRVPRVYLGGLEHHHHHH”, the “soluble on expression in E. coli” value was “soluble”. For “MNFDLFADEASRRWTETLAPGAVILRGHAYDDAPALLAALQTVIACAPLRNMITPGGFVMSVAMSNCGQLGWVTDEQGYRYTSHDPLSGEAWPAMPEAFSLLAKQAASEAGFADFEPDACLINRYDVGTRMSLHQDKNERDFHQPIVSVSLGLSATFLFGGMVRSDKAQRVPLTHGDVVVWGGESRLYFHGILPLKSGAVPEGMPDECRFNLTFRKAGLEHHHHHH”, the “soluble on expression in E. coli” value was “soluble”. In the case of “MNFETVIGLEVHVELKTKSKIFSSSPNAFGAPPNTQTNVIDLGYPGVLPVLNRQAVEFAMKAAMALNCEIATETKFDRKNYFYPDNPKAYQISQYDQPLGKNGWIEIEVNGKKKKIGITRIHLEEDAGKLTHTGDGYSLVDFNRQGTPLIEIVSEPDIRSPEEAYAYLEKLKAIIQYTGVSDCKMEEGSLRCDANISLRPIGSDKFGTKTELKNLNSFNFVRMGLEYEAKRQEKILLSGGVIRQETRRFDEATKTTVLMRVKEGSEDYRYFPEPDLVMLYIDDEWKERVRASIPELPDARRKRYIEEWGLPEYDAKVLTLTKEMADFFEATVANGADPKLASNWLMVEVSGYLNAEQKELHDIALTPESLAGMIKLIQDGTISSKIAKKVFKELVEHGGDPERIVKEKGLVQISDEGALRKIVLEVLDANPQSVEDYKNGKDRALGFLVGQVMKATKGQANPPLVNKLLVEEIGKR”, the “soluble on expression in E. coli” value is reported as “not soluble”.
